According to PMC12446771, “Proximity-dependent proteomics and network analysis of adenylyl cyclase isoforms 5, 6, and 9 in cardiomyocytes” (The Journal of Biological Chemistry, 2025):

Target: the molecule itself
Assay: immunogold EM spatial mapping (univariate Ripley's K-function); intact apical plasma membrane sheets of BHK cells expressing AC5-YFP or AC6-RFP, 4.5 nm gold on anti-YFP or anti-RFP, TEM at 100,000×

B1: AC5-YFP (enzyme)
chain: not shown
notes: adenylyl cyclase type 5; printed as AC5-YFP in the results and YFP-AC5 in the methods; also called YFP-AC5; source: BHK cells, transfected, on intact apical plasma membrane sheets
stoichiometry N: 2
